This is an account of results in patent publication US20030152514A1 (ABGENIX, published 2003).

Values joined by “and” are separate entries in the source; they are usually repeats but may differ in a detail not shown here. Equal entries are not always repeated.

Broadly, the koff is the first-order rate constant of dissociation. The low end stands for a long-lived complex, the high end for a short-lived complex. What is called Kd is a measure of binding affinity in units of concentration. The kon is a measure of how fast the partners come together. A low value points to slower complex formation.

Experiment [1] deals with T1, human MUC18 expressed by human melanoma cells (A375-SM, TXM-13, WM-2664) (human, UniProt P43121 24-646).
T1 construct: whole, on cells; also called MCAM; Mel-CAM
As to the kind of experiment: immunoblot of melanoma cell lysates (40 ug protein, 10% SDS-PAGE, denatured MUC18), anti-human IgG secondary, ECL. As to the method: (§1) After overnight incubation, the plates were washed two times in PBS, and scraped in 400 μl Triton lysis buffer containing a cocktail of protease inhibitors plus DTT. Following centrifugation, the protein concentration was determined using a kit from BioRad. 40 μg of protein was loaded onto a 10% SDS-PAGE and electrophoretically transferred to a 0.45 -micron nitrocellulose membrane (Millipore). The membrane was incubated in buffer containing anti-MUC18 antibody overnight, reacted with a conjugated secondary antibody (Anti-human IgG) for one hour and the proteins were subsequently detected by the ECL (Amersham Corp) method according to the manufactures protocol.
A general note: A western blot detects proteins with antibodies after separation by electrophoresis.

Experiment [2] has as its target T2, MUC18-V5-His antigen (extracellular domain aa 1-559 of human MUC18 fused to V5-HIS) (human, UniProt P43121 24-559). As to the kind of experiment: SPR (Biacore 3000), mAb captured on protein A, MUC18-V5-His in flow, 1:1 model; October 2001, chip II; exponent printed without its minus sign.
The target of experiment [3] is T2, MUC18-V5-His antigen (extracellular …). As to the kind of experiment: SPR (Biacore 3000), mAb captured on protein A, MUC18-V5-His in flow, 1:1 model; November 2001, chip III; exponent printed without its minus sign. Background: In SPR one partner is held on a chip, and binding of the other changes the refractive index at the surface.
In experiment [4] the target is T3, mouse MUC18 protein of normal (nude) mouse endothelial cells (mouse, UniProt Q8R2Y2 24-648).
T3 construct: whole, on cells; Tested as cell lysate on SDS-PAGE immunoblot, not on intact cells; also called NME; NME2 cells
T3 sequence (looked up): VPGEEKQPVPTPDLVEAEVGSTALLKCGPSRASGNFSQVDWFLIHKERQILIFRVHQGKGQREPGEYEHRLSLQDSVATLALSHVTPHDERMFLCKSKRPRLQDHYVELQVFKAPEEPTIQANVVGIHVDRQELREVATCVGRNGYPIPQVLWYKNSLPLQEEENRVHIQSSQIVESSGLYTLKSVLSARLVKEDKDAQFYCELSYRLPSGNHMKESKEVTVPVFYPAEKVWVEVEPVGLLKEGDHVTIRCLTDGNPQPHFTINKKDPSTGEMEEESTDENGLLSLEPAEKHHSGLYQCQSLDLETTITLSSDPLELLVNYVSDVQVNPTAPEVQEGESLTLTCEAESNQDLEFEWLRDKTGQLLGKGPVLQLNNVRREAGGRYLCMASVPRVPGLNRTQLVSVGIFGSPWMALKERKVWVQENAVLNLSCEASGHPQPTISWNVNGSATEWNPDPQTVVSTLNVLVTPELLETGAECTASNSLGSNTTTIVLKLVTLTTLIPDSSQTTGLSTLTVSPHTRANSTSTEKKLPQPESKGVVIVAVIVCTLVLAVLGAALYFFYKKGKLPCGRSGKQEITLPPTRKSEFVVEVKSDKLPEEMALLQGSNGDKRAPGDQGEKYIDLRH
As to the kind of experiment: immunoblot of nude mouse endothelial cell lysate (40 ug protein, 10% SDS-PAGE), anti-human IgG secondary, ECL. As for the experimental part: as §1

For experiment [5], the target named is T2, MUC18-V5-His antigen (extracellular …). As to the kind of experiment: SPR (Biacore 3000), average of the seven measurements.
For experiment [6] the target is unchanged. Nature of the experiment: SPR (Biacore 3000), mAb captured on protein A, MUC18-V5-His in flow, 1:1 model; October 2001, chip II.
For experiment [7] the target is unchanged. Nature of the experiment: SPR (Biacore 3000), mAb captured on protein A, MUC18-V5-His in flow, 1:1 model; November 2001, chip III.
The target is the same in experiment [8]. Nature of the experiment: SPR (Biacore 3000), mAb captured on protein A, MUC18-V5-His in flow, 1:1 model; May 2001, chip I.
For experiment [9] the target is unchanged. As to the kind of experiment: SPR (Biacore 3000), mAb captured on protein A, MUC18-V5-His in flow, 1:1 model; May 2001, chip I; exponent printed without its minus sign.

B1: anti-MUC18 antibody c3.19.1 (antibody, human IgG2, V domains shown)
VH: QVQLQESGPGLVKPSETLSLTCTVSGGSISSYYWSWIRQPPGKGLEWIGYIYYTWTSNYNPSLKSRVTISVDTSKNQFSLRLSSVTAADTAVYYCARDQGQWLLPDAFDIWGQGTMVTVSS
VL: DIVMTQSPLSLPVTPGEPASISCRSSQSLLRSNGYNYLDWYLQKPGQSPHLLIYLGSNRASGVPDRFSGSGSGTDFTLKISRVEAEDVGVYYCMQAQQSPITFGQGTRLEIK
notes: also called ABX-MA1; MAb 3.19.1
For the molecule B1, the binding result in experiment [1] is on record as “binds”; in experiment [4], “no binding”. Moreover, the off-rate constant (koff) in experiment [2] was 0.000402 s⁻¹ and 0.000396 s⁻¹; in experiment [3] it was 0.000347 s⁻¹ and 0.000385 s⁻¹ and 0.000402 s⁻¹ and 0.000389 s⁻¹; in [5], 0.000375 s⁻¹; in experiment [9], 0.000302 s⁻¹. Besides, the Kd in [5] was 610 pM; in experiment [6], 570 pM and 690 pM; in experiment [7], 460 pM and 620 pM and 650 pM and 590 pM; in experiment [8], 670 pM. Further, the kon in experiment [5] is 627000 M⁻¹ s⁻¹; in experiment [6], 709000 M⁻¹ s⁻¹ and 575000 M⁻¹ s⁻¹; in experiment [7], 749000 M⁻¹ s⁻¹ and 625000 M⁻¹ s⁻¹ and 615000 M⁻¹ s⁻¹ and 661000 M⁻¹ s⁻¹; in [8], 453000 M⁻¹ s⁻¹.
